Test results as given in the nanobody polyreactivity screen of Harvey et al. (2022).

Experiment: yeast display, Sf9 membrane polyspecificity reagent, FACS + sequencing; frameworks hold sequencing errors
Method in brief: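 Polyreactivity labels are assigned by the sorting gate from which each nanobody was recovered. The gates were low and high (top ~1%), set on anti-HA fluorescence for expression and streptavidin fluorescence for reagent binding. Before sorting, galactose-induced (36–48 hours) yeast display cells were stained for 1 hour at 4 °C with 10% biotinylated, detergent-solubilized Sf9 membrane reagent.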

QVQLVESGGGLVQAGGSLRLSCAASGRTFGRYAMGWYRQAPGKERELVAGISGSVGITYYADSVKGRFTISRDNAKNTVYLQMNSLKPEDTAVYYCAVVARAGHKYDYWGQGTQVTVSS
polyreactivity (PSR sort gate): low polyreactivity

QVQLVESGGGLVQAGGSLRLSCAASGRTFWPYAMGWYRQAPGKERELVAAISTSGGSTYYADSVKGRFTISRDNAKNTVYLQMNSLKPEDTAVYYCAAYSTLTPAYEYWGQGTQVTVSS
polyreactivity (PSR sort gate): high polyreactivity

QVHLVESGGGLVHAGGSLRLSCAASGSTFYYYAMGWYRQAPGKERELVAAIRLRGGGTYADSVKGRFTISRDNAKNTFYLQMNSLKPEDTAVYYCAARVWYHGTQFGYWGQGTQVTVSS
polyreactivity (PSR sort gate): high polyreactivity

QVQLVESGGGLVQAGGSLRLSCAASGFTFDYYTMGWSRQAPGKERELVAAISWSGGSTYYADSVKGRFTISRDNAKNTVYLQMNSLKPEDTAVYYCAVDGPKTDDIENYWGQGTQVTVSS
polyreactivity (PSR sort gate): low polyreactivity

QVQLEESGGCLVQAGGSLRLRCAASGRIVALNAMGWYRQAPGKERELVATIRCRGGATYYADSVKGRFTISRDNAKNTVYLQMNSLKPEDNAVYYCDAFTGNRRTYDYWGQGTQVTVSS
polyreactivity (PSR sort gate): high polyreactivity

QVQLVESGGGLVQAGGSLRLSCAASGSNFYVYAMGCYRQAPGKERELVAAINYDSGSTYYADSVKGRFTISRDTAKNTVYLQMNSLIPEDTAVYYCGTDGVNPFYAYDYWGQGTQVTVSS
polyreactivity (PSR sort gate): low polyreactivity

QDQHVESGGGLVQAGGSLRLSCAASGSTFDWNAMGWSRQAPGKERELVAGISWNGGSTYYADSVKGRFTISRDNAKNTVYLQMNSLKPEDTAVYYCNVVYGTTEYDYWGQGTQVTVSS
polyreactivity (PSR sort gate): low polyreactivity

QVQHVESGGGLVQAGGSLRLSCAASGSIFYDYAMGWYRQAPGKERELVAAISKSDGSTYYADSVKGRFTISRDNAKNTVYLQMNSLKPEDTAVYYCNADLIYSYPPEYDYWGQGTQVTVSS
polyreactivity (PSR sort gate): high polyreactivity

QVQLVESGGGLVQAGGSLRLSCAASGRTFFHYAMGWYRQAPRKERELVAAISSGGGTYADSVKGRFTISRDNAKNTVYLQMNSLKPEDTAVYYCNADTDSAKSPAYYYWGQGTQVTVSS
polyreactivity (PSR sort gate): low polyreactivity

QVQHVESGGGLVQAGGSLRLSCAASGSTFWFNAMGWYRQATGKVRELVAAITSGSTYYADSVKGRFTISRDNAKNTVYLPMNSLQPEYTAVYYCASTEFTFYYSYDYWAQGTQVTVSS
polyreactivity (PSR sort gate): low polyreactivity

QVQLVESGGGLVQAGGSLRLSCAASGRIFYAYTMGRSRQAPGKERELVAAISGSGSTYYADSVKGRFTISRDNAKNTVYLQMNSLKPEDTAVYYCAADVTGGRKYDYWGQGTQVTVSS
polyreactivity (PSR sort gate): low polyreactivity

QVQLVESGGGLVQAGGSLRLSCAASGSTFSWYAMGWYRQAPGKERELVAAITRSGGRTYYADSVKGRFTISRDNAKNTVYLQMNSLKPEDTAVYYCAAVQYKSPHNYWGQGTQVTVSS
polyreactivity (PSR sort gate): high polyreactivity

QVQLVESGGGLVQAGGSLRLSCAASGSTLDSYAMGSYRQAPGKERELVAAISGSGGSTYYADSVKGRFTISRDNAKNTVYLEMNSLKPEDTAVYYCDTDYSTQTLGYWYDYWGQGTQVSVSS
polyreactivity (PSR sort gate): low polyreactivity

QVQLVESGGGLVQAGGSLRLSCAASGSIFVPYAMGWYRQAPGKEREFVAVISLRGSRTYYADSVKGRFTISRDNAKNTVYLQMNSLKPEDTAVYYCATTGYRLRQATRYDYWGQGTQVTVSS
polyreactivity (PSR sort gate): high polyreactivity

QVQLVESGGGLDQAGGSLRLSCAASVRIFEENAMGWSRQAPGKEREFVAVITSSGGGTYYADSVKGRFTISRDKAKNTVYLQMNSLKPEDTAVYYCARADKLHTRGWGRWGSGSYSWGQGTQVTVSS
polyreactivity (PSR sort gate): low polyreactivity

QVQLVESGGGIVHAGGSLRLSCAASGFIFDTNAMGWYRQAPGKEREMVAAITNDDSTNYADSVKGRFTISRDNAKTTVYLQMNSLKPEDTSVYYCAAYYIAQVVWPTTFHQQEYDYWGQGSQVTVSS
polyreactivity (PSR sort gate): low polyreactivity

QVQLVESGGGLVQAGGSLRLSCAASGSTFCYYAMGWYRQAPGKERELLAAITRSGGRTYYADSVKGRFTISRDNAKNTVYLQMNSLKPEDTAGYYCAADSRVGFGRLYGYWGQGTQVTVSS
polyreactivity (PSR sort gate): high polyreactivity

QVQLVESGGRLVQAGGSLRLSCASSGSTFVYYAMGWYRPAPGKERELVAVISDDGGTYYADSVKGRFTISRDNAKNTVYLQMNSLKPEDTAVYYCAIDYYGGAYYWYNDRSGDYWGQGTQVTVSS
polyreactivity (PSR sort gate): low polyreactivity

QVQLVESGGGLVQAGGSLRLSCAASGRIFDTNVMGWYRQAPGKERELVAAISSGGSTYYADSVKGRFTISRDNAKNTVYLQMNSLKPEDTAVYFCAAESRTSRARRYYWGQGTQVTVSS
polyreactivity (PSR sort gate): high polyreactivity

QVQLVESGGGLVQAGGSLRLSCAASGRIFGYNTMGWYRQPPGKERELVAAITSTGRTYYADSVKGRFTISRDNAKNTVYLQMNSLKPEDTAVYYCNARSSYGWPKYYYWGQGTQVTVSS
polyreactivity (PSR sort gate): high polyreactivity

QVQLVESGGGLVQAGGSLRLSCAASGSTISRNAMGWYRQAPGKERELVAAITSKGDSTYYADSVKGRFTISRDNAKNTVYLQMNSLKPEDTAVYYCAAVRRGYKYDYWGQGTQVTVSS
polyreactivity (PSR sort gate): low polyreactivity

QVQLVESGGGLVQAGGSLRLSCAASGRTFTTIAMGWYRQAPGKERELVSAINSGGSTNYADSVKGRFTISRDNAKNTVYLQMNSLKPEDTAVYYCAKRQRDYSSVFDVDYWGQGTQVTVSS
polyreactivity (PSR sort gate): low polyreactivity

QVQHVESGGGIVQAGGSLRLSCAASGSIFRNNTMGWYRQAPGKERELVAAISGRGTRTSYADSVKGRFTISRDNAKNTVYLQMNSLKPEDTAVYYCAARSWYLYYWGQGTQVTVSS
polyreactivity (PSR sort gate): low polyreactivity

QVHLVESGGGLVQAGGSLRLSCAASGSIYPYTMGWYRQAPGKERELVAGITRSGGRTYYADSVKGRFTISRDNAKNTVYLQMNSLKPEDTAVYYCAAGTTAWYWSEYYYWGQGTQVTVSS
polyreactivity (PSR sort gate): high polyreactivity

QVQLVESGGGLVQAGGSLRLSCAASGRILDANDMGWYRQAPGKERELVAGINSGGSTYYADSVKGRFTISRDNAKNTVYLQMNSLKPEDTAVYYCAAGGVSAKYDYWGQGTQVTVSS
polyreactivity (PSR sort gate): low polyreactivity

QVQLVESGGGLVQAGGSLRLSCAASGSIFQYNAMGWYRQAPGKEREFVAAISSRGGITYYADSVKGRFTISRDNAKNTVYLQMNSLKPEDTAVYYCAAEAYYSEVRWYEYWGQGTQVTVSS
polyreactivity (PSR sort gate): high polyreactivity

QVQLVESGGGIVQAGVSLRLSCAASGSTFVRYAMGWYRPAPGKERELVAAISGGGSTSYADSVKGRFTISRDNAKNTVYLQMNSLKPEDTAVYYCAAEKYRWENDAYQYYTFDYWGQGTQVTVSS
polyreactivity (PSR sort gate): low polyreactivity

QVQLVESGGGLVQAGGSLRLSCAASGRIFYVYGMGWYRQAPGKERELVAAISKRGDNTYYADSVKGRFTISRDNAKNTVYLQMNSLKPEDTAVYYCAAKYNYSPRAGFNFWGQGTQVTVSS
polyreactivity (PSR sort gate): high polyreactivity

QVQLVESGGCLVQAGGSLRLSCAASGSIFDSNPKGWYRQAPGKERELVAAITGSGTSTYYADSVKGRFTISRDNAKNTVYLQMNSLKPEDTALNYCAAAPEYLTDHDYWGQGTQVTVSS
polyreactivity (PSR sort gate): low polyreactivity

QVQLVESGGGLVQAGGSLRLSCAASGRILPGYALGWYRQAPGKERELVAAIRGNGDSTYYADSVKGRFTISRDNAKNTVYLQMNSLKPEDTAVYYCAARRVSTIPRDSYRGRKYGYWGQGTQVTVSS
polyreactivity (PSR sort gate): low polyreactivity

QVQLVESAGGLVQAGGSLSLSCAASGRIFNLYAMGWYRKAPGKERELVAAIRGRGTSTYYADSVKGRFTISRDNAKNTVYLQMNSLKPEDTAVYYCAREGGYGPTLQDTSRYEYWGQGTQVTVSS
polyreactivity (PSR sort gate): low polyreactivity

QVQLVESAGGLVQAGGSLRLSCAASGSTFTGYAMGWYRQAPGKERELVAAITYSGVRTNYADSVKGRFTISRDNANNTVYLQMNSLKPEDTAVYYCNAAVVYVKMDYWGQGTQVTVSS
polyreactivity (PSR sort gate): low polyreactivity
